Results on 7 compounds are retold here after patent publication EP0561496A2 (NEW ENGLAND MEDICAL CENTER HOSPITALS, INC., priority 1992, dated 1993).

pIC50, pKd: −log10 of the molar value.

Test [1] has as its target T1, recombinant GR-1 receptor (canine parietal cell gastrin receptor) (Canis lupus familiaris, UniProt P30552).
T1 construct: expressed in transfected cells; host or cells: COS-7 cells transiently transfected with GR-1 in pCDNA-1
T1 sequence (P30552 1-453): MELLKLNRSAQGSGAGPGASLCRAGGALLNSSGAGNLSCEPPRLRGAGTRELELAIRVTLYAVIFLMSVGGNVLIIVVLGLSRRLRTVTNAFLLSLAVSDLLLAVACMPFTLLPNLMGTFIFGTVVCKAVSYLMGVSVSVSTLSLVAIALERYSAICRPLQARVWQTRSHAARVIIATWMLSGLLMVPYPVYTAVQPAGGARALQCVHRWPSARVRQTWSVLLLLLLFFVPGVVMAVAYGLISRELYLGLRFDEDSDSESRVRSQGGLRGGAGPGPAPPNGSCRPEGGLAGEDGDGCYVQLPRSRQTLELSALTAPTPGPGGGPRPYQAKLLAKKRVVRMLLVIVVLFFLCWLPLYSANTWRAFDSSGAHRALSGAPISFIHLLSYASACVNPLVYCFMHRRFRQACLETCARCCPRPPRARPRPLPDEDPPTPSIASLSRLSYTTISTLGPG
The test can be described thus: Competition binding of 125I-CCK-8 to intact GR-1 transfected COS-7 cells.
Experimental: COS-7 cells (1.5x 10⁶) were plated in 10 cm culture dishes (Nunc) and grown in DMEM/ 10% fetal calf serum, 5% CO₂ at 37°C. […] Twenty-four hours following transfection, cells were split into 24-well dishes (Nunc), 5000 cells/well. […] Equilibrium binding occurred after incubation for 80 min at 37°C. Cell monolayers were subsequently washed three times and bound radioactivity was quantified after cell hydrolysis in 1 N NaOH.

Test [2] has as its target T1, recombinant GR-1 receptor (canine parietal cell gastrin receptor). Put plainly: Competition binding in isolated plasma membranes from GR-1 transfected COS-7 cells. The following applies: isolated membranes from transiently transfected COS-7 cells, 60 min at 22°C; read-out: IC₅₀.
Experimental: Binding parameters were also measured in isolated plasma membranes from COS-7 cells transfected with GR-1. Binding was performed for 60 min at 22°C.
The target in test [3] is T2, human brain CCK-B receptor (Homo sapiens, UniProt P32239).
T2 construct: isolate the corresponding full length human CCK-B receptor cDNA from a fetal (week 23) human brain library; expressed in transfected cells; host or cells: COS-7 cells transiently transfected with hCCKB-pcDNA I
T2 sequence (P32239 1-447): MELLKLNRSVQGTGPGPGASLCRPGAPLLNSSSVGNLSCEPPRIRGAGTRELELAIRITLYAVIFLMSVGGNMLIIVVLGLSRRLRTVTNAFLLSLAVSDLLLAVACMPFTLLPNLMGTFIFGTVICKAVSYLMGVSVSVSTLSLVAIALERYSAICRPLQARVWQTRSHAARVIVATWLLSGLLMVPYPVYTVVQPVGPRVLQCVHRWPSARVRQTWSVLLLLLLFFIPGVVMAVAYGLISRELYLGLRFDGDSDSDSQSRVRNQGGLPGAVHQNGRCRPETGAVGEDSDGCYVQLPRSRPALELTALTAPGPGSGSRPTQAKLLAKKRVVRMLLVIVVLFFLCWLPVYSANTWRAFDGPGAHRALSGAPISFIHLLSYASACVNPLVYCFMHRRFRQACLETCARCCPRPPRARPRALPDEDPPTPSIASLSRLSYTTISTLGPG
Put plainly: Competition binding of 125I CCK-8 to COS-7 cells transfected with hCCKB-pcDNA I. The following applies: recombinant human CCK-B receptor.

Test [4] addresses canine parietal cell gastrin receptor (recombinant, clone GR-1, expressed in transfected COS-7 cells) (canine). The test can be described thus: competition against 125I-CCK-8, intact GR-1 transfected COS-7 cells.
Test [5] shares this target. Put plainly: competition against 125I-CCK-8, isolated membranes of GR-1 transfected COS-7 cells.
Test [6] has the same target. The test can be described thus: cell-based or functional assay.
The target in test [7] is gastrin receptor on native canine parietal cells (canine). Put plainly: radioligand saturation binding, native parietal cells.
Test [8] concerns the target canine parietal cell gastrin receptor (recombinant, clone GR-1, expressed in transfected COS-7 cells) (canine). The test can be described thus: radioligand saturation binding, GR-1 transfected COS-7 cells.
For test [9] the target is unchanged. The test can be described thus: 125I-CCK-8 binding to GR-1 transfected COS-7 cells, no competitor (FIG. 3).

On to `CSCC[C@H](NC(=O)[C@H](Cc1ccc(O)cc1)NC(=O)[C@@H](N)CC(=O)O)C(=O)NCC(=O)N[C@@H](Cc1c[nH]c2ccccc12)C(=O)N[C@@H](CCSC)C(=O)N[C@@H](CC(=O)O)C(=O)N[C@@H](Cc1ccccc1)C(N)=O` [CCK-8-desulfate], for which the pIC50 was 8.85 in test [1] (intact GR-1 transfected COS-7 cells, 40 pM 125I-CCK-8 radioligand, 80 min at 37°C, read-out: IC₅₀) and 8.82 in [2].

`CN1C(=O)[C@@H](NC(=O)c2cc3ccccc3[nH]2)N=C(c2ccccc2)c2ccccc21` [L364,718]: in test [1] (read-out: IC₅₀), the pIC50 is 7.72.

Turning to `Cc1cccc(NC(=O)N[C@@H]2N=C(c3ccccc3)c3ccccc3N(C)C2=O)c1` [L365,260], the pIC50 in [1] is 6.89. For the same compound, in test [3], the “higher affinity than L364,718” value is listed as “approximately 40 fold”.

For the compound “CCK-8 (from UniProt P06307 96-103) (peptide)”, the figures for the pIC50 in [4] and in test [5] were 10.05 and 10.10, respectively.

On to “CCK-8-desulfate (from UniProt P06307 96-103) (peptide)”, for which the pIC50 in test [5] was 8.82.

Consider “gastrin I (from UniProt P01350 76-92) (peptide)”, for which, in [6], the free cytosolic calcium, [Ca²⁺] worked out at 142 nM; the free cytosolic calcium, [Ca²⁺], after chelation of extracellular calcium by EGTA (2.5 mM) worked out at 88.5 nM; the level of Ins-1,3,4,5-P₄, increase is 272%; the level of Ins-1,4,5-P₃, increase over control was determined as 741%. Besides, the pIC50 in test [4] is 9.59. In test [5], the pIC50 is 9.40.

For the compound “¹²⁵I-CCK-8 (from UniProt P06307 96-103) (peptide)”, the pKd is 9.57 in [7] and 10.10 in test [8]. In test [9], the Maximum binding in the absence of competitor (100%) was determined as 5.2 pM.
